Source: patent US20070117924A1, “Biologically active material conjugated with biocompatible polymer with 1:1 complex, preparation method thereof and pharmaceutical composition comprising the same” (priority 2003, published 2007)

B1: mPEG(20000)-Hz-G-CSF (conjugate, UniProt P09919 31-207, looked up)
Granulocyte …: TPLGPASSLPQSFLLKCLEQVRKIQGDGAALQEKLVSECATYKLCHPEELVLLGHSLGIPWAPLSSCPSQALQLAGCLSQLHSGLFLYQGLLQALEGISPELGPTLDTLQLDVADFATTIWQQMEELGMAPALQPTQGAMPAFASAFQRRAGGVLVASHLQSFLEVSYRVLRHLAQP
modifications: mPEG 20 kDa via hydrazine linker

Assays:
[1] = tested on: UMR-10^6 cell line; experiment: In vitro biological activity of mPEG-PTH conjugate: c-AMP synthesized in UMR-10^6 cell line; assay type: cell-based; settings: concentration of 10-8 mole, FIG. 19
[2] = Half-life of mPEG-Hz-PTH in rats (cAMP in plasma); settings: male rats, 100 ug/kg intravenous; FIG. 20
[3] = tested on: White Blood Cell (WBC) count; experiment: White blood cell (WBC) count of PEG-G-CSF-treated rats; assay type: in vivo, Sprague-Dawley rats; settings: 100 ug/kg into tail vein, blood 0-96 hrs, FIG. 9
[4] = Half life of PEG-G-CSF conjugate in rats (serum activity by cell XTT assay); settings: 100 ug/kg intravenous, FIG. 8

Row | Molecule | activity retained, % of unreacted PTH (c-AMP synthesized) [1] | detection after administration (not detected) [2] | time after administration at which detected [2] | WBC counts compared with native G-CSF and Neulasta [3] | half-life compared to native G-CSF [4]
1 | mPEG(5000)-Hz-PTH | 40% | not detected after 15 mins | – | – | –
2 | mPEG(12000)-Hz-PTH | 30% | – | 1 h | – | –
3 | mPEG(20000)-Hz-PTH | 20% | – | 2 h | – | –
4 | unreacted PTH [reference compound] | – | not detected after 15 mins | – | – | –
5 | B1 | – | – | – | higher WBC counts than both native G-CSF and Neulasta™ | much longer half-life compared to native G-CSF
